# Source: patent US20130336988A1, “METHODS FOR TREATING EARLY STAGE OR MILD NEUROLOGICAL DISORDERS” (NEW YORK UNIVERSITY, priority 2010, published 2013)
# Tests used:
# SorCS2 = target: T1, SorCS2 (Homo sapiens, UniProt Q96PQ0); experiment: Co-immunoprecipitation of proNT with SorCS2 in transfected 293 cells; assay type: binding; details: 293 cells co-transfected with proNT and myc-SorCS2; IP-Western blot
# T1 construct: expressed in transfected cells; host or cells: HEK 293 cells (proBDNF) / 293T cells (proNGF)
# T1 sequence (Q96PQ0 51-1159): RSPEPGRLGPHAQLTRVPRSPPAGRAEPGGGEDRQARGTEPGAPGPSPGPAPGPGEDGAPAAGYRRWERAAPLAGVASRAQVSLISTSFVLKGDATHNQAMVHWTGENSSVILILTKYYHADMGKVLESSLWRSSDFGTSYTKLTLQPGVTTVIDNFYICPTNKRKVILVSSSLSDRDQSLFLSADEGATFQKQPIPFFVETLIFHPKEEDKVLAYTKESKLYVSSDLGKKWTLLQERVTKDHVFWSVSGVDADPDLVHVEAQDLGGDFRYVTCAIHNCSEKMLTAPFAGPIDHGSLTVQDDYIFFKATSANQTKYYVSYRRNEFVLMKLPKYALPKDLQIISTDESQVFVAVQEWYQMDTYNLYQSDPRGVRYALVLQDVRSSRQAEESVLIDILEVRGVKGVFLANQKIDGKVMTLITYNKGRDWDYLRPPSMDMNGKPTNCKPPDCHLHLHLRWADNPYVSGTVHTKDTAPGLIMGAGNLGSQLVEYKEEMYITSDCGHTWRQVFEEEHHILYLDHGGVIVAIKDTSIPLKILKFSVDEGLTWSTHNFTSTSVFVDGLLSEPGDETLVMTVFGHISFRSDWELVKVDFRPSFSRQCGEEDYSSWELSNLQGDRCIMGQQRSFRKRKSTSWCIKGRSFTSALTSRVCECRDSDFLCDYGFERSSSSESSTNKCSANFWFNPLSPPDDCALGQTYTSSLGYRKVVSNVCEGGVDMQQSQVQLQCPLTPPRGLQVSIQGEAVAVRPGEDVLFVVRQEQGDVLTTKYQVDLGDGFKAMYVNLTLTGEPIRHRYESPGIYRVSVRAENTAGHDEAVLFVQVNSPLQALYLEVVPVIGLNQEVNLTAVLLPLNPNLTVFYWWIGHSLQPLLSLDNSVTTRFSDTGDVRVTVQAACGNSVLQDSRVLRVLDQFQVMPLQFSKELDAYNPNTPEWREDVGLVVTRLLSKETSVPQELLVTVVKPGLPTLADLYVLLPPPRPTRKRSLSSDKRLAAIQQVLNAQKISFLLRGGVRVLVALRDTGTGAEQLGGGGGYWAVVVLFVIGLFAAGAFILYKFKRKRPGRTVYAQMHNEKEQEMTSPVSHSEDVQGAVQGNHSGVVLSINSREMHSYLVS
# Protocol: FIG. 2A-G. ProNTs induce growth cone collapse. (A, B) DIV3 hippocampal neurons transfected with LifeAct-RFP were imaged by time-lapse microscopy before (top panel) and starting approximately 2 min after (bottom panel) treatment with proBDNF (A) or proNGF (B). Actin dynamics stalled upon proNT treatment and subsequently the growth cone collapsed. Time is indicated in (min:sec). Scale bars, 10 μm. (C, D) DIV3 hippocampal cultures were fixed and stained for p75^NTR (C) and SorCS2 (D). Arrows highlight growth cones. Scale bars, 20 μm. (E) Brain sections from 6-week old C57/BL6 mice were stained for SorCS2. DG, dentate gyrus. Arrows highlight expression in dentate granule dendrites. Scale bar, 200 μm. (F) Both sortilin and SorCS2 interact with proBDNF. HEK 293 cells were transfected with proBDNF-HA and myc-sortilin or mycSorCS2, lysates were immunoprecipitated with anti-HA agarose and analyzed by Western blot with indicated antibodies. (G) IP-WB from 293T cells showing interactions between proNGF and sortilin and SorCS2.
# The LifeAct sequence (RIEDL, J. et al., Nat Methods 5:605-607 (2008)) was cloned into the pEGFP-N1 backbone (Clontech) using the BglII and BamHI restriction sites. Trio constructs were described previously (FERRARO, F. et al., Mol Biol Cell 18:4813-4825 (2007)), human sortilin cDNA or human SorCS2 cDNA was subcloned into the pcDNA3.1 hygro expression vector (Invitrogen). […]
# [1] = tested on: Cortical neurons expressing p75^NTR; experiment: Growth cone collapse in cortical neurons; assay type: cell-based, mouse; details: cortical neurons expressing p75NTR (not shown)
# Protocol: Primary hippocampal and cortical neurons were isolated from E15 C57BL/6 mouse embryos as previously described (PEREIRA, D. B. et al., Journal of Neuroscience 27:4859-4869 (2007)). Briefly, neurons were dissociated by incubation with 0.05% trypsin at 37° C. for 8 min followed by trituration with fire-polished glass Pasteur pipettes. Cells were plated on poly-D-lysine coated dishes and grown in Neurobasal medium containing B27, 0.5 mM glutamine (all Invitrogen) and 10 μM 5-fluorodeoxyuridine. Hippocampal neurons were transfected at DIV2 using Lipofectamine2000 (Invitrogen). For coverslips in a 24-well plate, 0.5 μg plasmid were mixed with 0.5 μl Lipofectamine2000, and for glass bottom dishes, 1.5 μg plasmid were mixed with 1.5 μl Lipofectamine2000. The complexes were added to the cells for 30-45 min, and then neurons were placed back into preconditioned media until analysis the following day. HT1080 cells were grown in DMEM/10% fetal bovine serum (both Invitrogen) and transfected using the AMAXA nucleofector (Lonza) according to manufacturer's instructions. 293FT cells were grown in DMEM/10% fetal bovine serum and transfected with Lipofectamine2000 according to manufacturer's instructions.
Molecule,interaction with SorCS2 (co-immunoprecipitation) (SorCS2),growth cone collapse in cortical neurons [1]
"proNGF: proneurotrophin precursor of nerve growth factor, produced in Sf9 cells and purified",co-immunoprecipitated with both sortilin and SorCS2,displayed growth cone collapse
proBDNF: murine proBDNF collected from supernatants of transfected 293 cells (protein) APMKEVNVHGQGNLAYPGVRTHGTLESVNGPRAGSRGLTTTSLADTFEHVIEELLDEDQKVRPNEENHKDADLYTSRVMLSSQVPLEPPLLFLLEEYKNYLDAANMSMRVRRHSDPARRGELSVCDSISEWVTAADKKTAVDMSGGTVTVLEKVPVSKGQLKQYFYETKCNPMGYTKEGCRGIDKRHWNSQCRTTQSYVRALTMDSKKRIGWRFIRIDTSCVCTLTIKRGR,interact,–
